How the values were obtained:
Asp85 [1] = biological target: Asp85 (UniProt position 98, WARYADWLFTA); assay: UV-vis; settings: pH adjusted with 0.1 M HCl or NaOH, Retinal-reconstituted chromoprotein in purple membrane, ground state. Light/dark adaptation state during the titration is not stated.
Asp85 [2] = biological target: Asp85 (UniProt position 98, WARYADWLFTT); assay: UV-vis; settings: pH adjusted with 0.1 M HCl or NaOH, Retinal-reconstituted chromoprotein in purple membrane, ground state. Light/dark adaptation state during the titration is not stated.
[3] = 150 mM KCl, none stated (Methods say non-buffered)
[4] = Deionised water with no added salt, apart from the HCl/NaOH titrant, none (non-buffered)

| Substance | pKa (Asp85 [1]; [3]) | pKa (Asp85 [1]; [4]) | pKa (Asp85 [2]; [3]) | pKa (Asp85 [2]; [4]) |
| --- | --- | --- | --- | --- |
| Bacteriorhodopsin T90A, bacterioopsin reconstituted with 13-ethyl retinal (T90A-13E-RET) (Halobacterium salinarum; T90A) | 6.4 | 6.7 | – | – |
| Bacteriorhodopsin T90A, bacterioopsin reconstituted with all-trans retinal (T90A-AT) (Halobacterium salinarum; T90A) | 5.8 | 6.1 | – | – |
| Bacteriorhodopsin, wild-type bacterioopsin reconstituted with 13-ethyl retinal (WT-13E-RET) (Halobacterium salinarum) | – | – | 4.5 | 4.7 |
| Bacteriorhodopsin, wild-type bacterioopsin reconstituted with all-trans retinal (WT-AT) (Halobacterium salinarum) | – | – | 3.9 | 4.6 |
